In experiment [1] the target is T1, white-tufted-ear marmoset full-length 5T4-(GGGGS)-mCherry, transiently expressed on HEK293 cells (white-tufted-ear marmoset (Callithrix …, UniProt Q13641 32-420 (human entry))).
T1 construct: also called marmoset full-length 5T4-mCherry; marmoset 5T4; not shown: mCherry fluorescent protein
T1 chain: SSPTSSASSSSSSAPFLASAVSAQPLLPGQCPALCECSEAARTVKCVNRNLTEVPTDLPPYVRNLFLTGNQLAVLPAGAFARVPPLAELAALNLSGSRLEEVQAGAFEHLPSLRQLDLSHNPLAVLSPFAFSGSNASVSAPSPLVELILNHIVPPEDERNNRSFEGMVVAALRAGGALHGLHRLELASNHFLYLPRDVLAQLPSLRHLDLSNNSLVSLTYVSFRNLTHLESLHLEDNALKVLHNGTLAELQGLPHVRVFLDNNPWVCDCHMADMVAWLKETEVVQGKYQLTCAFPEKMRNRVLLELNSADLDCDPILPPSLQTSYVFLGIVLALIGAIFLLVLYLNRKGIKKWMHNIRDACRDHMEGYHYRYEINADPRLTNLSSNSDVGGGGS
The experiment in a line: flow cytometry on mCherry-positive HEK293 cells transiently expressing marmoset full-length 5T4-mCherry, one-site specific binding fit. (In general: Flow cytometry measures light scatter and fluorescence of single cells or particles in a stream.)

In experiment [2] the target is T2, human full-length 5T4-(GGGGS)-mCherry, transiently expressed on HEK293 cells (human, UniProt Q13641 32-420).
T2 construct: also called human full-length 5T4-mCherry; not shown: mCherry fluorescent protein
T2 sequence: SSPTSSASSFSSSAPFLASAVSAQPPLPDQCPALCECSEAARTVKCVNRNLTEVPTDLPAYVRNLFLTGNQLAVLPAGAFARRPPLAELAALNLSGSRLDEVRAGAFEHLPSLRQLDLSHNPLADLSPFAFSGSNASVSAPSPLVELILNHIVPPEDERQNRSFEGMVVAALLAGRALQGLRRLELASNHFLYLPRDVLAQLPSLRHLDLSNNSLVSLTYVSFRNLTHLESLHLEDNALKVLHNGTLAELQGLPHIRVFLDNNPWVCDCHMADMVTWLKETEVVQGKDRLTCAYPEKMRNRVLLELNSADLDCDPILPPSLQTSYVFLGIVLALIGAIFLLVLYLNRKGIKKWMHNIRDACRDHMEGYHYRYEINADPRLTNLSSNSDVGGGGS
Briefly: flow cytometry on mCherry-positive HEK293 cells transiently expressing human full-length 5T4-mCherry, one-site specific binding fit.

Experiment [3] has as its target T3, recombinant hexameric human C1q complement protein (human, UniProt P02745 23-245; P02746 28-253; P02747 29-245, limits assumed).
T3 construct: Described only as recombinant hexameric C1q; also called complement factor C1q
Briefly: HTRF human C1q binding assay (Cisbio). In general terms: Time-resolved FRET reads energy transfer from a long-lived donor to a nearby acceptor.

Experiment [4] concerns the target T4, human 5T4 (trophoblast glycoprotein, TPBG), endogenously expressed on tumor cells (human, UniProt Q13641 32-420).
T4 construct: the protein stood on cell lines that express it endogenously; also called endogenously expressed human 5T4; MDA-MB-468 cells
T4 sequence: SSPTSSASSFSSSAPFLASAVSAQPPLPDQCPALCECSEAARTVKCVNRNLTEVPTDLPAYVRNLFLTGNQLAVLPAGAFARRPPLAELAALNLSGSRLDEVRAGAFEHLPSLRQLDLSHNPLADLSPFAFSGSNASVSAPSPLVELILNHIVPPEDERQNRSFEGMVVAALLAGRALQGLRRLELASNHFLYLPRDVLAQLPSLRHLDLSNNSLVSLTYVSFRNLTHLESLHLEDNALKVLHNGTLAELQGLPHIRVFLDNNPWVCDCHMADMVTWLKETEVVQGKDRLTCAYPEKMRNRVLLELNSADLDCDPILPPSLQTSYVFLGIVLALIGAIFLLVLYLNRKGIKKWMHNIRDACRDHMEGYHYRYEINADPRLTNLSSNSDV
Briefly: flow cytometry on MDA-MB-468 cells endogenously expressing human 5T4, 0.002 to 200 nM, one-site specific binding fit.

Experiment [5] deals with T5, purified recombinant human 5T4 antigen, extracellular domain as 6x-Histidine fusion protein (glycosylated) (human, UniProt Q13641 32-355).
T5 construct: Expressed in Expi-HEK293; also called glycosylated 5T4; recombinant immobilized human 5T4 antigen; not shown: 6x-Histidine tag
T5 sequence: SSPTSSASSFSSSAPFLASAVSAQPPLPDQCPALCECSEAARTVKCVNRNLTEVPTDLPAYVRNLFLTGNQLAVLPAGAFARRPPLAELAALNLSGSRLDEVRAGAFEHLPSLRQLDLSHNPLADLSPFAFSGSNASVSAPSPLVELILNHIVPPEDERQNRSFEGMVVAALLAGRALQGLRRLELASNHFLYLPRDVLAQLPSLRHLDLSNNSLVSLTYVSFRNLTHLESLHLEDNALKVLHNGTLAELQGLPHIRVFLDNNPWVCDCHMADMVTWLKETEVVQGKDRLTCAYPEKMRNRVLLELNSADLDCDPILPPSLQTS
Briefly: ELISA on immobilized recombinant human 5T4 ECD-6xHis; apparent KD, one-site specific binding fit. (In general: In an ELISA, binding on a coated surface is turned into a signal by an enzyme label.)

The target of experiment [6] is T6, purified recombinant human 5T4 antigen, extracellular domain as 6x-Histidine fusion protein, de-glycosylated … (human, UniProt Q13641 32-355, de-glycosylated with PNGase F over night at 37 C).
T6 construct: Same construct as m5 after PNGase F treatment; also called de-glycosylated 5T4; not shown: 6x-Histidine tag
T6 sequence: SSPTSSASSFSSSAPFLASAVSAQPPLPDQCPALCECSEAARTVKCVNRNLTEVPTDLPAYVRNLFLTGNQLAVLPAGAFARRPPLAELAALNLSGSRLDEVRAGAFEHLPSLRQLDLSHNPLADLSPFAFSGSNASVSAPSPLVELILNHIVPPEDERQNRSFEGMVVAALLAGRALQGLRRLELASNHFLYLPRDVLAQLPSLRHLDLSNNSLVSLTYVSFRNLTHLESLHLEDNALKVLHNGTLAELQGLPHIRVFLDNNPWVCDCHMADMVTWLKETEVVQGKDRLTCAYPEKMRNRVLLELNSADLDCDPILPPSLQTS
Briefly: ELISA on immobilized PNGase F-treated recombinant human 5T4 ECD-6xHis; apparent KD, one-site specific binding fit.

T3 sequence (P02745 23-245 limits assumed, chain 1 of 3): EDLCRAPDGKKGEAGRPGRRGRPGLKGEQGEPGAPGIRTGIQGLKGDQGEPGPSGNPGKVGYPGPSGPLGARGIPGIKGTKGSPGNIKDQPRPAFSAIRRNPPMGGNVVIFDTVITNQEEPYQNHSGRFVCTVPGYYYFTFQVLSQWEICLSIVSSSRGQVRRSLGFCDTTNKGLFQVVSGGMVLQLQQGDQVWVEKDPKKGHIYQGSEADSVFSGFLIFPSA
T3 sequence (P02746 28-253 limits assumed, chain 2 of 3): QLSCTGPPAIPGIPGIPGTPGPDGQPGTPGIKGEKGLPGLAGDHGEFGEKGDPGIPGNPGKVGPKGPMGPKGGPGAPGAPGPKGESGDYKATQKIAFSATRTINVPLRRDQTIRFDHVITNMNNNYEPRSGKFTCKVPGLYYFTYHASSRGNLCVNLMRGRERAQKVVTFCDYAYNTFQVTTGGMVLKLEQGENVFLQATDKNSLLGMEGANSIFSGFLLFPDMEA
T3 sequence (P02747 29-245 limits assumed, chain 3 of 3): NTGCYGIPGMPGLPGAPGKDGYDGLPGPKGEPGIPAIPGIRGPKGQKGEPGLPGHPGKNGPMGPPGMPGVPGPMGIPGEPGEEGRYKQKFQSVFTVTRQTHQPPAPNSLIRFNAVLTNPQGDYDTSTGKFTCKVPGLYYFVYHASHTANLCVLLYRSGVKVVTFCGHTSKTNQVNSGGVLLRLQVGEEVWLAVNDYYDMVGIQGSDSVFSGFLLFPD

B1: anti-TPBG antibody HC-LALA (LALA-silenced anti-TPBG antibody) (antibody)
heavy: not shown
light: EIVMTQSPDSLAVSLGERATINCKASQSVSNDVAWYQQKPGQPPKLLIYYTSSRYAGVPDRFSGSGSGTDFTLTISSLQAEDVAVYYCQQDYNSPPTFGGGTKLEIKRTVAAPSVFIFPPSDEQLKSGTASVVCLLNNFYPREAKVQWKVDNALQSGNSQESVTEQDSKDSTYSLSSTLTLSKADYEKHKVYACEVTHQGLSSPVTKSFNRGEC
notes: also called anti-TBPG antibody; anti-TPBG mAb HC-LALA
Take B1: the Kd in experiment [1] worked out at 5.46 nM; in experiment [2], 2.15 nM; in experiment [4], 0.247 nM; in experiment [5], 0.1 nM; in experiment [6], 0.16 nM. In addition, the binding result in experiment [3] is “no binding (tested: serial dilutions 280 nM-11.6 nM)”.

For the origin of these results see patent publication US20240245798A1 (TUBULIS, published 2024).
